Assay results published in patent US20090089894A1 (IOWA STATE UNIVERSITY RESEARCH FOUNDATION, published 2009).

Target: T1, pB42AD-T, SV40 large T-antigen (87-708 aa) in the pB42AD vector (SV40, UniProt P03070 87-708)
T1 construct: range 87-708; positive control prey
Assay: yeast two-hybrid positive control (FIG. 2)

T1 sequence (P03070 87-708 limits assumed): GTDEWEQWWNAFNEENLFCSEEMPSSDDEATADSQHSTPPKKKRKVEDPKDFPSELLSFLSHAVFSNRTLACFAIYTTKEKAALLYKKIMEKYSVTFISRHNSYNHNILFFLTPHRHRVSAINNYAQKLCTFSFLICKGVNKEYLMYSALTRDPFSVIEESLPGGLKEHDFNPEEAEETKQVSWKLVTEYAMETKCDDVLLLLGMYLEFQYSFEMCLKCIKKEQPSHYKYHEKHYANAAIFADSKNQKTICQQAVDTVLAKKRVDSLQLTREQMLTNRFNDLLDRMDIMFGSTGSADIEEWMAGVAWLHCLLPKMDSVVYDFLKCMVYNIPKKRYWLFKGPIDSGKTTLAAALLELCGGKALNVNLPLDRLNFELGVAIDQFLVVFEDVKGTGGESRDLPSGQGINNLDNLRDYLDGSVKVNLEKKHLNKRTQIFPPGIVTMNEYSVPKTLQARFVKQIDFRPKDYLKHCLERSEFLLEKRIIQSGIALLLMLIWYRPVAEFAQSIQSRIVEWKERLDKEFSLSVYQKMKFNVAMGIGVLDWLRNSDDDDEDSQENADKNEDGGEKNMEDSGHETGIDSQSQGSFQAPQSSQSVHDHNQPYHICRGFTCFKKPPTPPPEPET

B1: pLexA-53, murine p53 (72-390 aa) in the pLexA vector (other)
chain: PVTETPGPVAPAPATPWPLSSFVPSQKTYQGNYGFHLGFLQSGTAKSVMCTYSPPLNKLFCQLAKTCPVQLWVSATPPAGSRVRAMAIYKKSQHMTEVVRRCPHHERCSDGDGLAPPQHLIRVEGNLYPEYLEDRQTFRHSVVVPYEPPEAGSEYTTIHYKYMCNSSCMGGMNRRPILTIITLEDSSGNLLGRDSFEVRVCACPGRDRRTEEENFRKKEVLCPELPPGSAKRALPTCTSASPPQKKKPLDGEYFTLKIRGRKRFEMFRELNEALELKDAHATEESGDSRAHSSYLKTKKGQSTSRHKKTMVKKVGPDSD
notes: range 72-390; positive control bait
B1: binds.
